Measured values reported in the MegaScale stability set (Tsuboyama et al. 2023).

B1: EEHEE_rd4_0003 (parent)
chain: KKVTINGVEIKFNNPEEAVKFALELAKRLNLRIEFHGDQIKIE

Variants of: B1
Assay: folding stability dG (cDNA display proteolysis); higher = more stable
Conditions: PBS, room temperature

Variant | folding stability dG
KKVTINGVEIKFNNPEEAVKFAIELAKRLNLRIEFHGDQIKIE [L23I] | 10.7 kJ/mol
KKVTINGVEIKFNNPEEAVKFAGELAKRLNLRIEFHGDQIKIE [L23G] | 5.97 kJ/mol
KKVTINGVEIKFNNPEEAVKFARELAKRLNLRIEFHGDQIKIE [L23R] | 9.18 kJ/mol
KKVTINGVEIKFNNPEEAVKFASELAKRLNLRIEFHGDQIKIE [L23S] | 7.86 kJ/mol
KKVTINGVEIKFNNPEEAVKFAQELAKRLNLRIEFHGDQIKIE [L23Q] | 8.9 kJ/mol
KKVTINGVEIKFNNPEEAVKFADELAKRLNLRIEFHGDQIKIE [L23D] | 6.17 kJ/mol
KKVTINGVEIKFNNPEEAVKFAVELAKRLNLRIEFHGDQIKIE [L23V] | 9.6 kJ/mol
KKVTINGVEIKFNNPEEAVKFATELAKRLNLRIEFHGDQIKIE [L23T] | 9.59 kJ/mol
KKVTINGVEIKFNNPEEAVKFAEELAKRLNLRIEFHGDQIKIE [L23E] | 8.87 kJ/mol
KKVTINGVEIKFNNPEEAVKFAYELAKRLNLRIEFHGDQIKIE [L23Y] | 10.2 kJ/mol
KKVTINGVEIKFNNPEEAVKFAAELAKRLNLRIEFHGDQIKIE [L23A] | 8 kJ/mol
KKVTINGVEIKFNNPEEAVKFAKELAKRLNLRIEFHGDQIKIE [L23K] | 9.07 kJ/mol
KKVTINGVEIKFNNPEEAVKFACELAKRLNLRIEFHGDQIKIE [L23C] | 13.3 kJ/mol
KKVTINGVEIKFNNPEEAVKFAHELAKRLNLRIEFHGDQIKIE [L23H] | 8.18 kJ/mol
KKVTINGVEIKFNNPEEAVKFAPELAKRLNLRIEFHGDQIKIE [L23P] | 0.0293 kJ/mol
KKVTINGVEIKFNNPEEAVKFAMELAKRLNLRIEFHGDQIKIE [L23M] | 10.6 kJ/mol
KKVTINGVEIKFNNPEEAVKFAWELAKRLNLRIEFHGDQIKIE [L23W] | 9.84 kJ/mol
KKVTINGVEIKFNNPEEAVKFANELAKRLNLRIEFHGDQIKIE [L23N] | 8.18 kJ/mol
KKVTINGVEIKFNNPEEAVKFAFELAKRLNLRIEFHGDQIKIE [L23F] | 10.3 kJ/mol
KKVTINGVEIKFNNPEEAVCFALELAKRLNLRIEFHGDQIKIE [K20C] | 15.8 kJ/mol

Variant | folding stability dG
KKVTINGVEIKFNNPEEAVPFALELAKRLNLRIEFHGDQIKIE [K20P] | 7.05 kJ/mol
KKVTINGVEIKFNNPEEAVAFALELAKRLNLRIEFHGDQIKIE [K20A] | 11 kJ/mol
KKVTINGVEIKFNNPEEAVDFALELAKRLNLRIEFHGDQIKIE [K20D] | 8.08 kJ/mol
KKVTINGVEIKFNNPEEAVLFALELAKRLNLRIEFHGDQIKIE [K20L] | 10.4 kJ/mol
KKVTINGVEIKFNNPEEAVVFALELAKRLNLRIEFHGDQIKIE [K20V] | 9.21 kJ/mol
KKVTINGVEIKFNNPEEAVTFALELAKRLNLRIEFHGDQIKIE [K20T] | 9.37 kJ/mol
KKVTINGVEIKFNNPEEAVGFALELAKRLNLRIEFHGDQIKIE [K20G] | 7.39 kJ/mol
KKVTINGVEIKFNNPEEAVIFALELAKRLNLRIEFHGDQIKIE [K20I] | 9.95 kJ/mol
KKVTINGVEIKFNNPEEAVEFALELAKRLNLRIEFHGDQIKIE [K20E] | 9.54 kJ/mol
KKVTINGVEIKFNNPEEAVMFALELAKRLNLRIEFHGDQIKIE [K20M] | 10.2 kJ/mol
KKVTINGVEIKFNNPEEAVQFALELAKRLNLRIEFHGDQIKIE [K20Q] | 10.2 kJ/mol
KKVTINGVEIKFNNPEEAVRFALELAKRLNLRIEFHGDQIKIE [K20R] | 11.7 kJ/mol
KKVTINGVEIKFNNPEEAVFFALELAKRLNLRIEFHGDQIKIE [K20F] | 10.5 kJ/mol
KKVTINGVEIKFNNPEEAVYFALELAKRLNLRIEFHGDQIKIE [K20Y] | 10.3 kJ/mol
KKVTINGVEIKFNNPEEAVSFALELAKRLNLRIEFHGDQIKIE [K20S] | 9.36 kJ/mol
KKVTINGVEIKFNNPEEAVHFALELAKRLNLRIEFHGDQIKIE [K20H] | 9.22 kJ/mol
KKVTINGVEIKFNNPEEAVNFALELAKRLNLRIEFHGDQIKIE [K20N] | 8.93 kJ/mol
KKVTINGVEIKFNNPEEAVKFALPLAKRLNLRIEFHGDQIKIE [E24P] | 6.14 kJ/mol
KKVTINGVEIKFNNPEEAVKFALMLAKRLNLRIEFHGDQIKIE [E24M] | 11.4 kJ/mol
KKVTINGVEIKFNNPEEAVKFALALAKRLNLRIEFHGDQIKIE [E24A] | 12 kJ/mol

Variant | folding stability dG
KKVTINGVEIKFNNPEEAVKFALVLAKRLNLRIEFHGDQIKIE [E24V] | 9.82 kJ/mol
KKVTINGVEIKFNNPEEAVKFALILAKRLNLRIEFHGDQIKIE [E24I] | 10.4 kJ/mol
KKVTINGVEIKFNNPEEAVKFALGLAKRLNLRIEFHGDQIKIE [E24G] | 9.55 kJ/mol
KKVTINGVEIKFNNPEEAVKFALSLAKRLNLRIEFHGDQIKIE [E24S] | 10.4 kJ/mol
KKVTINGVEIKFNNPEEAVKFALNLAKRLNLRIEFHGDQIKIE [E24N] | 9.82 kJ/mol
KKVTINGVEIKFNNPEEAVKFALKLAKRLNLRIEFHGDQIKIE [E24K] | 10 kJ/mol
KKVTINGVEIKFNNPEEAVKFALRLAKRLNLRIEFHGDQIKIE [E24R] | 10.7 kJ/mol
KKVTINGVEIKFNNPEEAVKFALCLAKRLNLRIEFHGDQIKIE [E24C] | 17.5 kJ/mol
KKVTINGVEIKFNNPEEAVKFALLLAKRLNLRIEFHGDQIKIE [E24L] | 11.1 kJ/mol
KKVTINGVEIKFNNPEEAVKFALWLAKRLNLRIEFHGDQIKIE [E24W] | 13.2 kJ/mol
KKVTINGVEIKFNNPEEAVKFALTLAKRLNLRIEFHGDQIKIE [E24T] | 10.2 kJ/mol
KKVTINGVEIKFNNPEEAVKFALHLAKRLNLRIEFHGDQIKIE [E24H] | 9.35 kJ/mol
KKVTINGVEIKFNNPEEAVKFALQLAKRLNLRIEFHGDQIKIE [E24Q] | 10.8 kJ/mol
KKVTINGVEIKFNNPEEAVKFALFLAKRLNLRIEFHGDQIKIE [E24F] | 10.8 kJ/mol
KKVTINGVEIKFNNPEEAVKFALDLAKRLNLRIEFHGDQIKIE [E24D] | 10.3 kJ/mol
KKVTINGVEIKFNNPEEWVKFALELAKRLNLRIEFHGDQIKIE [A18W] | 11.6 kJ/mol
KKVTINGVEIKFNNPEEYVKFALELAKRLNLRIEFHGDQIKIE [A18Y] | 9.88 kJ/mol
KKVTINGVEIKFNNPEESVKFALELAKRLNLRIEFHGDQIKIE [A18S] | 8.06 kJ/mol
KKVTINGVEIKFNNPEERVKFALELAKRLNLRIEFHGDQIKIE [A18R] | 7.18 kJ/mol
